13 molecules from patent publication US20230312684A1 (PINETREE THERAPEUTICS, published 2023) can be followed below.

Assay [1] addresses RSV-F (amino acids 1-529), (Extracellular Domain) protein (His tag), ABIN2006856 (respiratory syncytial virus) (UniProt P03420). As to the kind of experiment: ELISA, RSV F coated, read on SpectroMax.
Assay [2] addresses Influenza A H5N1 virus (IAV H5N1) (target of the Octet assay of Example 18; protein not specified) (Influenza A H5N1 virus). In words: BLI (Octet Red 96), binding affinity to IAV H5N1.
In assay [3] the target is RSV-F (amino acids 1-529), (Extracellular Domain) protein (His tag), ABIN2006856 (respiratory syncytial virus) (UniProt P03420). In words: ELISA, RSV F coated, read on Varioskan plate reader. (In general: ELISA stands for enzyme-linked immunosorbent assay.)
Assay [4] concerns the target SARS-CoV-2 (antigen of the ELISA of Example 17; protein not specified) (SARS-CoV-2). In words: ELISA by the method of Example 15, SARS-CoV-2 antigen.
For assay [5], the target named is RSV-F (amino acids 1-529), (Extracellular Domain) protein (His tag), ABIN2006856 (respiratory syncytial virus) (UniProt P03420). In words: ELISA, RSV F coated, anti-human IgG-HRP.
Assay [6] addresses Recombinant RSV F protein (Octet assays of Examples 14 and 16) (respiratory syncytial virus, UniProt P03420 26-529).

The term EC50 denotes the concentration that produces a half-maximal response. A high value points to weaker potency. By Kd is commonly meant the equilibrium constant for the complex coming apart. With “SEQ ID NO: 113, b1-Fc (NRP1, WT, single b1) (Fc fusion)”, the EC50 in assay [1] was found to be 323 nM; in assay [3], 372 nM. The molecule also returned a Kd in assay [2] of 18.9 nM. In the same order, the values of “SEQ ID NO: 121, b1b1-b1b1-Fc (NRP1, WT, quadruple b1) (Fc fusion)” are 5.9 nM, 5.65 nM and 0.00782 nM.

With “SEQ ID NO: 122, b1b2-Fc (NRP1, WT, single b1b2) (Fc fusion)”, the EC50 in assay [4] is 3.09 nM; in assay [5] it was 23.3 nM. The molecule further showed a Kd in assay [2] of 17.5 nM. Molecule “SEQ ID NO: 138, b1b2-b1b2-Fc (NRP1, WT, double b1b2) (Fc fusion)” returned an EC50 in assay [4] of 110 nM. This lies in the sub-micromolar range. In assay [5], “SEQ ID NO: 154, b1b2-Fc (NRP2, WT, single b1b2) (Fc fusion)” registered an EC50 of 185 nM.

In the case of “SEQ ID NO: 191, b1b2-Fc (NRP1, WT) (Fc fusion)”, the EC50 was 95.7 nM in assay [1] and 91 nM in assay [3]. The molecule “SEQ ID NO: 192, b1b2-Fc-ACE2-1 (NRP1 b1b2 at the N-terminus, alpha domain of ACE2 at the C-terminus) (Fc fusion)” showed an EC50 in assay [5] of 53.9 nM.

“SEQ ID NO: 203, b1b2-Fc-ACE2 (NRP1, WT, ACE2 alpha domain) (Fc fusion)”: in assay [5], the EC50 is 69.7 nM. Take “SEQ ID NO: 205, b1b2-Fc-ACE2 (NRP1, WT, repeated ACE2 alpha domain) (Fc fusion)”: the EC50 in assay [5] was determined as 39.2 nM.

Consider “SEQ ID NO: 206, Nrp1(b1)/Nrp2(b2)-Fc (WT) (Fc fusion)”, for which, in assay [5], the EC50 stood at 22.7 nM. On the same count and under the same terms, the value for “SEQ ID NO: 207, Nrp2(b1)/Nrp1(b2)-Fc (WT) (Fc fusion)” was 17.1 nM.

B1: SEQ ID NO: 121, b1b1-b1b1-Fc (NRP1, WT, quadruple b1) (Fc fusion)
chain: EDFKCMEALGMESGEIHSDQITASSQYSTNWSAERSRLNYPENGWTPGEDSYREWIQVDLGLLRFVTAVGTQGAISKETKKKYYVKTYKIDVSSNGEDWITIKEGNKPVLFQGNTNPTDVVVAVFPKPLITRFVRIKPATWETGISMRFEVYGCKITDYPCMEALGMESGEIHSDQITASSQYSTNWSAERSRLNYPENGWTPGEDSYREWIQVDLGLLRFVTAVGTQGAISKETKKKYYVKTYKIDVSSNGEDWITIKEGNKPVLFQGNTNPTDVVVAVFPKPLITRFVRIKPATWETGISMRFEVYGCGGGGSGGGGSCMEALGMESGEIHSDQITASSQYSTNWSAERSRLNYPENGWTPGEDSYREWIQVDLGLLRFVTAVGTQGAISKETKKKYYVKTYKIDVSSNGEDWITIKEGNKPVLFQGNTNPTDVVVAVFPKPLITRFVRIKPATWETGISMRFEVYGCKITDYPCMEALGMESGEIHSDQITASSQYSTNWSAERSRLNYPENGWTPGEDSYREWIQVDLGLLRFVTAVGTQGAISKETKKKYYVKTYKIDVSSNGEDWITIKEGNKPVLFQGNTNPTDVVVAVFPKPLITRFVRIKPATWETGISMRFEVYGCGGGGSGGGGSEPKSCDKTHTCPPCPAPELLGGPSVFLFPPKPKDTLMISRTPEVTCVVVDVSHEDPEVKFNWYVDGVEVHNAKTKPREEQYNSTYRVVSVLAVLHQDWLNGKEYKCKVSNKALPAPIEKTISKAKGQPREPQVYTLPPSRDELTKNQVSLTCLVKGFYPSDIAVAWESNGQPENNYKTTPPVLDSDGSFFLYSKLTVDKSRWQQGNVFSCSVMHEALHAHYTQKSLSLSPGK
As to B1, the Kd in assay [6] is less than 1 nM.

B2: SEQ ID NO: 113, b1-Fc (NRP1, WT, single b1) (Fc fusion)
chain: EDFKCMEALGMESGEIHSDQITASSQYSTNWSAERSRLNYPENGWTPGEDSYREWIQVDLGLLRFVTAVGTQGAISKETKKKYYVKTYKIDVSSNGEDWITIKEGNKPVLFQGNTNPTDVVVAVFPKPLITRFVRIKPATWETGISMRFEVYGCGGGGSGGGGSEPKSCDKTHTCPPCPAPELLGGPSVFLFPPKPKDTLMISRTPEVTCVVVDVSHEDPEVKFNWYVDGVEVHNAKTKPREEQYNSTYRVVSVLAVLHQDWLNGKEYKCKVSNKALPAPIEKTISKAKGQPREPQVYTLPPSRDELTKNQVSLTCLVKGFYPSDIAVAWESNGQPENNYKTTPPVLDSDGSFFLYSKLTVDKSRWQQGNVFSCSVMHEALHAHYTQKSLSLSPGK
With B2, in assay [6], the Kd is less than 1 nM.
